The results in this text go back to article PMC3218020, “Subtype Differences in Pre-Coupling of Muscarinic Acetylcholine Receptors” (PLoS ONE, 2011).

In experiment [1] the target is T1, M2 muscarinic acetylcholine receptor (Homo sapiens, UniProt P08172).
T1 construct: gene CHRM2; full-length receptor stably expressed in CHO cells, crude membranes
T1 sequence (P08172 1-466): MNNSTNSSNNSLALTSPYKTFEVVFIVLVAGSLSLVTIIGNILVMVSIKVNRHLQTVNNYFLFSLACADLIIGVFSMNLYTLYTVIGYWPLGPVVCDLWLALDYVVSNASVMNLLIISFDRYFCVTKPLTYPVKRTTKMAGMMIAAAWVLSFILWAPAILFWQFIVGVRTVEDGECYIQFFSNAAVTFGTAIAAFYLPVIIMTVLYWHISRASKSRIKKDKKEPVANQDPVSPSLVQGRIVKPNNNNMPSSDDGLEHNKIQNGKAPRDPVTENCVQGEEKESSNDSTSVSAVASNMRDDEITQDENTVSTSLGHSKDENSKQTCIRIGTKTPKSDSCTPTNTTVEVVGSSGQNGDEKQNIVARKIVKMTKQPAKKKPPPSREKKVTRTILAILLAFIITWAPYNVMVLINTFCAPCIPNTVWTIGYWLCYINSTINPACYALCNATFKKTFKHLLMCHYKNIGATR
Nature of the experiment: radioligand binding, CHO membranes. The following applies: labelled compound; antagonist; […] °C, pH […].

Experiment [2] has as its target G_(s/olf) G-proteins (Chinese hamster (endogenous in CHO)).
The target of experiment [3] is G_(q/11) G-proteins (Chinese hamster (endogenous in CHO)).
Experiment [4] has as its target Gi/o G-proteins (Chinese hamster (endogenous in CHO)).
Experiment [5] has as its target G-proteins (Chinese hamster (endogenous in CHO)).

In the case of `C[N+]1(C)[C@@H]2C[C@@H](OC(=O)[C@H](CO)c3ccccc3)C[C@H]1[C@@H]1O[C@@H]12` [[3H]-N-methylscopolamine], the “radioligand binding, CHO membranes” value in experiment [1] was “N-methylscopolamine binding was measured directly in saturation experiments using six concentrations”.
Consider “human M1 muscarinic acetylcholine receptor (from UniProt P11229 1-460)”, for which the EMAX of carbachol-stimulated [35S]GTPγS binding to G (s/olf) G-proteins via the receptor (scintillation proximity assay, CHO membranes, carbachol 0.1 µM to 1 mM) (fold increase of basal binding) in experiment [2] stood at 1.92. The EMAX of carbachol-stimulated [35S]GTPγS binding to G (q/11) G-proteins via the receptor (scintillation proximity assay, CHO membranes, carbachol 0.1 µM to 1 mM) (fold increase of basal binding) in experiment [3] was 3.9. Also, the EMAX of carbachol-stimulated [35S]GTPγS binding to Gi/o G-proteins via the receptor (scintillation proximity assay, CHO membranes, carbachol 0.1 µM to 1 mM) (fold increase of basal binding) in experiment [4] came out at 2.01.
On to “human M2 muscarinic acetylcholine receptor (from UniProt P08172 1-466)”, for which the EMAX of carbachol-stimulated [35S]GTPγS binding to G (s/olf) G-proteins via the receptor (scintillation proximity assay, CHO membranes, carbachol 0.1 µM to 1 mM) (fold increase of basal binding) in experiment [2] is 1.93. The same compound showed an EMAX of carbachol-stimulated [35S]GTPγS binding to G (q/11) G-proteins via the receptor (scintillation proximity assay, CHO membranes, carbachol 0.1 µM to 1 mM) (fold increase of basal binding) in experiment [3] of 1.63. The EMAX of carbachol-stimulated [35S]GTPγS binding to Gi/o G-proteins via the receptor (scintillation proximity assay, CHO membranes, carbachol 0.1 µM to 1 mM) (fold increase of basal binding) in experiment [4] is 3.44.
In experiment [2], “human M3 muscarinic acetylcholine receptor (from UniProt P20309 1-590)” came in with an EMAX of carbachol-stimulated [35S]GTPγS binding to G (s/olf) G-proteins via the receptor (scintillation proximity assay, CHO membranes, carbachol 0.1 µM to 1 mM) (fold increase of basal binding) of 2.16. This compound showed an EMAX of carbachol-stimulated [35S]GTPγS binding to G (q/11) G-proteins via the receptor (scintillation proximity assay, CHO membranes, carbachol 0.1 µM to 1 mM) (fold increase of basal binding) in experiment [3] of 3.31. The compound also showed an EMAX of carbachol-stimulated [35S]GTPγS binding to Gi/o G-proteins via the receptor (scintillation proximity assay, CHO membranes, carbachol 0.1 µM to 1 mM) (fold increase of basal binding) in experiment [4] of 2.16.
In experiment [2], “human M4 muscarinic acetylcholine receptor (from UniProt P08173 1-479)” gave an EMAX of carbachol-stimulated [35S]GTPγS binding to G (s/olf) G-proteins via the receptor (scintillation proximity assay, CHO membranes, carbachol 0.1 µM to 1 mM) (fold increase of basal binding) of 2.18. In addition, the EMAX of carbachol-stimulated [35S]GTPγS binding to G (q/11) G-proteins via the receptor (scintillation proximity assay, CHO membranes, carbachol 0.1 µM to 1 mM) (fold increase of basal binding) in experiment [3] came out at 1.59. In experiment [4], the EMAX of carbachol-stimulated [35S]GTPγS binding to Gi/o G-proteins via the receptor (scintillation proximity assay, CHO membranes, carbachol 0.1 µM to 1 mM) (fold increase of basal binding) stood at 3.15.
In turn, “wild-type human M1 muscarinic receptor (newly prepared CHO cell line) (from UniProt P11229 1-460)” displayed a fraction of low-affinity sites (f low) for carbachol in competition with 1 nM [3H]NMS, membranes of the newly prepared CHO cell line in experiment [5] of 72 percent.
